Measured values as given in patent US20260209365A1, “ANTI-COMMON GAMMA CHAIN PROTEINS AND COMPOSITIONS OF MATTER” (SINOMAB BIOSCIENCE LIMITED, priority 2023, published 2026).
Substitutions are numbered along the chain they refer to.

T1: γc proteins from human (Homo sapiens, UniProt P31785)
T1 construct: extracellular domain of human γc protein (amino acids: 1-262); host or cells: Expi-CHO (e.g.)
T1 sequence (P31785 23-262): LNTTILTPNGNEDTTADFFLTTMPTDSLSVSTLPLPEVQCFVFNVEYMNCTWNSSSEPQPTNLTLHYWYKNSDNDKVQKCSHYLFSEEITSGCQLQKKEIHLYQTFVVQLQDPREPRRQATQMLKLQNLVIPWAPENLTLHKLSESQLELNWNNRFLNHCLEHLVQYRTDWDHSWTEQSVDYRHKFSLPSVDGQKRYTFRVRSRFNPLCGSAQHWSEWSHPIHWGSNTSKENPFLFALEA

T2: human γc protein (Homo sapiens, UniProt P31785)
T2 construct: endogenous in cells; host or cells: Ramos B cells
T2 sequence (P31785 23-369): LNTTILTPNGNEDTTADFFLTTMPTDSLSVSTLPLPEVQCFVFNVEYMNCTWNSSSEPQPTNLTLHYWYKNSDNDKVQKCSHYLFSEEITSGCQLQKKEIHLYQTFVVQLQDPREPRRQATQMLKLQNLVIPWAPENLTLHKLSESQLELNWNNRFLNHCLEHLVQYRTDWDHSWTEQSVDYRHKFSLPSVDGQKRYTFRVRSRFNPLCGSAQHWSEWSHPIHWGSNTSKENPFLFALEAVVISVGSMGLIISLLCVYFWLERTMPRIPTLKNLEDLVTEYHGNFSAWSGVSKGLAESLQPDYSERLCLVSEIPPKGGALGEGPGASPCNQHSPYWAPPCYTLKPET

B1: hSM-05A: full-length humanized anti-γc antibody derived from SM-05A by framework patching (antibody, V domains shown)
VH: QVQLVQSGAEVLKPGASVKVSCKASGYTFTEYTMHWVKQARGQRLEWIGGIDPYNGGATYNQRFKGKATLTTDTSTSTAYMELRNLRSDDTAVYYCARRRLYYGNALDYWGQGTLVTVSS
VL: DIVMTQSPLSLPVTPGEQASISCRSSQSLVHSNGNTYLHWYLQKPGQSPQLLIYKVSSRFSGVPDRFSGSGSGTDFTLKISRVEAEDVGVYFCSQTTHVPFTFGSGTKLEIKR
B2: hSM-05E: full-length humanized anti-γc antibody derived from SM-05E by framework patching (antibody, V domains shown)
VH: B1 VH with Y54N, N55T, A58V, R63K, L101R, N105Y
VL: B1 VL with L29I, H39E, S58N, T96S, T102M

Experiments:
[1] = system: IL-2 induced p-STAT3; assay: Suppression of p-STAT in PBMC, IL-2; assay type: cell-based, human; details: antibody 10 μg/ml, compared to isotype control
Experimental: (§1) Given numbers refer to the percentage of inhibition compared to isotype control stimulated with respective γc cytokine. Antibody concentration is 10 μg/ml.

[2] = system: common marmoset γc; assay: BLI binding kinetics to common marmoset γc protein; parameters: species or system common marmoset (Callithrix jacchus)
Experimental: Full-length humanized antibodies were evaluated by BLI to access their binding kinetics. The binding activities of full-length anti-γc antibody were investigated using γc proteins (extracellular domain) from human and common marmoset (either purchased or in-house generated). Briefly, anti-γc antibody (20 μg/mL) was immobilized on biosensors via interactions with anti-human IgG; serially diluted γc proteins (at a concentration of 158.7 nM, 79.4 Nm, 39.7n M and 0 nM respectively) were subsequently added following standard operation protocols of the Octet ReD96 system to plot out the association and dissociation curve. Irrelevant antibody (SM03, anti-human CD22 chimeric IgG1 antibody, SinoMab BioScience Limited) was used as the control reference. The KD is within the picomolar-single digit nanomolar range.

[3] = system: IL-7 induced p-STAT5; assay: Suppression of p-STAT in PBMC, IL-7; assay type: cell-based, human; details: antibody 10 μg/ml, compared to isotype control
Experimental: as §1

[4] = system: IL-21 induced p-STAT3; assay: Suppression of p-STAT in PBMC, IL-21; assay type: cell-based, human; details: antibody 10 μg/ml, compared to isotype control
Experimental: as §1

[5] = system: IL-4 induced p-STAT6; assay: Suppression of p-STAT in PBMC, IL-4; assay type: cell-based, human; details: antibody 10 μg/ml, compared to isotype control
Excerpt: PBMC isolated from healthy individuals (iXCells Biotechnologies, San Diego, USA) is chosen as the primary immune cell culture to conclude the efficacies of anti-γc antibodies in the primary cells. As STAT phosphorylation could be triggered by the treatment of all six γc cytokines (except IL-9) in the PBMC culture (FIG. 12A-B), inhibition of p-STAT could be used as an indicator to confirm the efficacies of anti-γc antibodies.
as §1

[6] = system: IL-9 induced ERK phosphorylation; assay: Western blot of IL-9 induced ERK phosphorylation in Jurkat T cells; assay type: cell-based, human; details: humanized antibodies; 33 nM (5 μg/ml)
[7] = biological target: T1, γc proteins from human; assay: ELISA binding of full-length antibodies to human γc; details: humanized antibodies with back-mutation
Experimental: Selected clones of full-length antibodies were evaluated by ELISA to access the binding specificity. The binding activities of full-length anti-γc antibody were investigated using γc proteins (extracellular domain) from human (SEQ ID NO: 205-206), cynomolgus (Sequence ID: XP_005593949.1, SEQ ID NO: 207-208) and chimpanzee (Sequence ID: XP_008971810.1, SEQ ID NO: 209-210) either purchased from Sino Biological or in-house generated.
Humanized antibodies with back-mutation (hSM-05A and hSM-05E) were tested in the following assays. Binding affinities were investigated in the ELISA assays.

[8] = system: granzyme and IFNγ secretion; assay: Secretion of granzymes and IFNγ from PBMC culture, ELISA; assay type: cell-based, human; details: IL-2 or IL-15, 33 nM, humanized antibodies
Experimental: Activation of T and NK cells in the PBMC culture could be studied by granzyme and IFNγ secretion [Carlin et al., Blood., 2005; 106 (12): 3874-9; Grossman et al., Blood., 2004; 104 (9): 2840-8; Keppel et al., J Immunol., 2015; 194 (4): 1954-1962; Tamang et al., Cytokine., 2006; 36 (3-4): 148-59]. Similar results are obtained in-house that IL-2 and IL-15 but not IL-21 could trigger secretion of granzyme A and IFNγ in PBMC culture (FIG. 15A-B).
Antibodies or ritlecitinib were added into the PBMC culture to investigate their inhibitory effects in the presence of IL-2 or IL-15 treatment.
Releases of cytolytic agents from PBMC culture were further evaluated by ELISA assays.

[9] = biological target: T2, human γc protein; assay: Competition assay on Ramos B cells, flow cytometry; assay type: binding; details: unconjugated hSM-05A then FITC-conjugated hSM-05E, 33 nM
Experimental: Purified anti-γc antibodies were conjugated to FITC fluorescent dye and used for the competition assay. In brief, human γc expressing Ramos B cells were first labelled with unconjugated hSM-05A for an hour before further incubation with FITC-conjugated hSM-05E.

[10] = system: HaCaT cells; assay: CDC assay on HaCaT cells with complement; assay type: cell-based, human; details: 33 nM (5 μg/ml), vs isotype antibody
Experimental: γc expressing human keratinocyte HaCaT cell line was utilized as the target cells in ADCC and CDC assays. To determine the ADCC activity, HaCaT cell was pre-binded with anti-γc antibodies before co-culture with human PBMC. To determine the CDC activity, HaCaT cell was pre-binded with anti-γc antibodies before incubation with low-endotoxin complement proteins extracted from guinea pig. ADCC was determined by percentage of PI+ HaCaT cells in flow cytometry analysis while CDC was measured by the WST-8 proliferative assay of HaCaT cells in a 96-well plate (FIG. 22A).

common marmoset γc, sequence (as listed by the source): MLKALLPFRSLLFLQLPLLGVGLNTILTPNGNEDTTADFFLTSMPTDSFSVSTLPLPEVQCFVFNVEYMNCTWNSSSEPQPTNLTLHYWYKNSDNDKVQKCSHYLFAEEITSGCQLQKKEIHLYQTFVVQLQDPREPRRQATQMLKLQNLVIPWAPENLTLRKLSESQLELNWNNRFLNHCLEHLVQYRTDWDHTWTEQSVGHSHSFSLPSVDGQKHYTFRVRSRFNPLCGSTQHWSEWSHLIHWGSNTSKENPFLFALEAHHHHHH

Row | Ka [2] [M⁻¹ s⁻¹] | Kdis [2] [s⁻¹] | Molecule | IL-2 induced p-STAT3, percentage of inhibition [1] [%] | IL-7 induced p-STAT5, percentage of inhibition [3] [%] | IL-21 induced p-STAT3, percentage of inhibition [4] [%] | IL-4 induced p-STAT6, percentage of inhibition [5] [%] | suppression of IL-9 induced ERK phosphorylation [6] | ELISA binding to human γc [7] | inhibition of IFNγ secretion [8] | epitope competition between hSM-05A and hSM-05E [9] | CDC activity [10] | suppression of granzyme B secretion [8]
1 | 300000 | 0.00121 | B1 | 89.94 | 94.17 | 82.80 | 17.18 | better suppression to IL-9 induced ERK phosphorylation than hSM-05E | retained the binding affinity and specificity | comparable inhibition to IFNγ secretion to ritlecitinib | could compete on a similar epitope on the human γc protein | could not induce any ADCC nor CDC activities | 
2 | 333000 | 0.00175 | B2 | 58.45 | 66.02 | 100 | 21.74 |  | retained the binding affinity and specificity | only offered weak suppression to two agents | could compete on a similar epitope on the human γc protein | could not induce any ADCC nor CDC activities | only offered weak suppression to two agents
